Experimental findings from patent US20230002728A1, “STEM CELL FATE ENGINEERING METHODS” (Wisconsin Alumni Research Foundation, priority 2021, published 2023) are described below.

Format in all cases: cell-based, human
The subject of experiment [1] is H9 hESCs. In words: ALK inhibitor test on BMP4 patterns (BRA immunostaining, day 2). To be noted: 1 μM A83-01, 10 μM SB-431542 or 2 μM LDN-212854 added for the initial 24 h. On the procedure:
For localized mesendoderm differentiation, 2-2.5 ng/μl BMP4 solution was placed with various patterns on different substrates. For glass surfaces, 1.5 ng/μl BMP4 solution was used. 5 ng/μl noggin solution was placed as a droplet to show an inhibitory effect of noggin on BMP4-induced mesendoderm differentiation. After washing, substrate was coated with Matrigel® for 2 hours as described above. Glass was coated with Matrigel® overnight. 0.025 mg/ml Synthemax (Corning, 3535) (final concentration, diluted in water) was added to a washed TC-treated plate and the plate was incubated for 2 hours at room temperature prior to cell seeding. 5 μg/ml truncated recombinant human vitronectin (Gibco, A14700) diluted in PBS was added to a washed TC-treated plate and the plate was incubated for 1 hour at room temperature prior to cell seeding. After ECM coating, the ECM solution was aspirated and hPSCs were singularized using Accutase (10 min incubation at 37° C.), resuspended in mTeSR1 supplemented with 5 μM Y-27632, and seeded at 5×10^5 to about 1×10^6 cells/cm^2 on coated substrates (day 0). […]
(§1) For immunostaining of other protein markers, cells were fixed in 4% paraformaldehyde (Electron Microscopy Sciences, 15710-S) in PBS for 15 min at room temperature, washed with PBS three times, and incubated in diluted primary antibodies in 5% nonfat dry milk (Santa Cruz Biotechnology, sc-2324)/0.4% Triton X-100 (Fisher Scientific, BP151-500) PBS overnight at 4° C. […] After secondary antibody staining, the cells were washed with PBS three times, incubated in 2 μg/ml Hoechst 33342 diluted in PBS for 5 min at room temperature, washed with PBS two times, and analyzed under the fluorescence microscope.
Next, BMP4 solution was placed on TC-treated plates in various patterns (droplet, letters, circle, heart, and star), and hPSCs seeded onto the substrate in mTeSR1 maintenance medium. […] Since the presence of inhibitory morphogens is also important in developmental patterning, a BMP inhibitor, noggin, was evaluated for antagonism to localized BMP4-induced mesendoderm differentiation. […]

In experiment [2] the test system is H9 hESCs. Nature of the experiment: Noggin droplet pattern, inhibitory effect on BMP4-induced mesendoderm differentiation (BRA immunostaining). The settings on record: 5 ng/μl noggin droplet on TC-treated PS; mTeSR1 with 10 ng/ml BMP4, 2 days. The procedure:
For localized mesendoderm differentiation, 2-2.5 ng/μl BMP4 solution was placed with various patterns on different substrates. For glass surfaces, 1.5 ng/μl BMP4 solution was used. 5 ng/μl noggin solution was placed as a droplet to show an inhibitory effect of noggin on BMP4-induced mesendoderm differentiation. After washing, substrate was coated with Matrigel® for 2 hours as described above. Glass was coated with Matrigel® overnight. 0.025 mg/ml Synthemax (Corning, 3535) (final concentration, diluted in water) was added to a washed TC-treated plate and the plate was incubated for 2 hours at room temperature prior to cell seeding. […]
as §1, with “microscope. […]” for “microscope.”

The test system of experiment [3] is H9 hESCs. Nature of the experiment: Localized definitive endoderm differentiation of hPSCs on adsorbed activin A patterns (SOX17/FOXA2 immunostaining). The procedure: For immunostaining of other protein markers, cells were fixed in 4% paraformaldehyde (Electron Microscopy Sciences, 15710-S) in PBS for 15 min at room temperature, washed with PBS three times, and incubated in diluted primary antibodies in 5% nonfat dry milk (Santa Cruz Biotechnology, sc-2324)/0.4% Triton X-100 (Fisher Scientific, BP151-500) PBS overnight at 4° C. Then, the cells were washed with PBS three times and incubated in diluted secondary antibody in 5% nonfat dry milk/0.4% Triton X-100 PBS for 30 min at room temperature. After secondary antibody staining, the cells were washed with PBS three times, incubated in 2 μg/ml Hoechst 33342 diluted in PBS for 5 min at room temperature, washed with PBS two times, and analyzed under the fluorescence microscope.
For localized definitive endoderm differentiation, 25 ng/μl activin A solution was placed with various patterns on a TC-treated plate. Matrigel® coating and hPSC seeding was performed as the same way described above. Medium was changed daily with RPMI1640 medium supplemented with 2% FBS. For the ALK inhibitor test, 1 μM A83-01 (Tocris, 2939), 10 μM SB-431542 (Tocris, 1614), or 2 μM LDN-212854 (Tocris, 6151) was added to mTeSR1 at day 0. […]

Experiment [4] relates to H9 hESC-derived cardiac progenitor cells (CPCs). In words: Localized EpiC differentiation of hPSC-derived cardiac progenitors on morphogen droplets (WT1 immunostaining). To be noted: droplets on TC-coated PS plate, 7d after cardiac progenitor seeding. On the procedure: For localized EpiC differentiation, BMP4 (2 ng/μl)+Wnt3a (40 ng/μl) solution was placed in PDMS stencil masks either on a TC-treated plate or an ibidi 35 mm polymer dish. Matrigel® coating was performed as described above. Cryopreserved CPCs were thawed and seeded at 500,000-550,000 cells/cm^2 in LaSR medium (advanced DMEM/F12 (Gibco, 12634-010) supplemented with 60 μg/ml ascorbic acid (Sigma, A8960) and 2.5 mM Glutamax (Gibco, 35050-061)) supplemented with 5 μM Y-27632). Medium was changed daily with fresh LaSR medium until analysis. Time lapse imaging of CPCs derived from H9-hTNNT2-GFP hESC during localized EpiC differentiation was performed using a fluorescence microscope equipped with a heating stage top incubator. 18 days after CPC seeding, cells cultured on an ibidi polymer dish were immunostained and imaged using a confocal microscope (Nikon, A1R-SI+) for the analysis of sarcomere structure.
Spatial organization of cell fate commitment is important throughout development. […] These cardiac progenitors can further differentiate into CMs without any specific external signaling factors and can also differentiate into EpiCs upon activation of canonical Wnt signaling (Bao et al. (2016) Nature biomed. Eng. 1, 1-12).

Turning to `c1cc(-c2cnn3cc(-c4ccc(N5CCNCC5)cc4)cnc23)c2cccnc2c1` [LDN-212854], the “BRA expression in cells on the BMP4-patterned area” value (from here on “BRA expression in cells”) with H9 hESCs [1] is “suppressed BRA expression”.

As for `Cc1cccc(-c2nn(C(=S)Nc3ccccc3)cc2-c2ccnc3ccccc23)n1` [A83-01], the “BRA expression in cells” value in the experiment with H9 hESCs [1] is “suppressed BRA expression”.

Consider `NC(=O)c1ccc(-c2nc(-c3ccc4c(c3)OCO4)c(-c3ccccn3)[nH]2)cc1` [SB431542], for which the “BRA expression in cells” value in the experiment with H9 hESCs [1] is “suppressed BRA expression”.

B1: noggin: human recombinant noggin (R&D Systems, 6057-NG-025), a BMP inhibitor (protein, UniProt Q13253 28-232, looked up)
Noggin: QHYLHIRPAPSDNLPLVDLIEHPDPIFDPKEKDLNETLLRSLLGGHYDPGFMATSPPEDRPGGGGGAAGGAEDLAELDQLLRQRPSGAMPSEIKGLEFSEGLAQGKKQRLSKKLRRKLQMWLWSQTFCPVLYAWNDLGSRFWPRYVKVGSCFSKRSCSVPEGMVCKPSKSVHLTVLRWRCQRRGGQRCGWIPIQYPIISECKCSC
For the molecule B1, the “effect on BMP4-induced mesendoderm differentiation (BRA expression)” value in the experiment with H9 hESCs [2] was “inhibited BMP4-induced mesendoderm differentiation”.

B2: activin A: human recombinant activin A (R&D Systems, 338-AC-010), morphogen (protein, UniProt P08476 311-426, looked up)
Inhibin beta A chain: GLECDGKVNICCKKQFFVSFKDIGWNDWIIAPSGYHANYCEGECPSHIAGTSGSSLSFHSTVINHYRMRGHSPFANLKSCCVPTKLRPMSMLYYDDGQNIIKKDIQNMIVEECGCS
As to B2, the “endoderm differentiation (patterned SOX17 expression)” value with H9 hESCs [3] (25 ng/μl activin A adsorbed on TC-treated plate, day 3) is “induced localized endoderm differentiation”. In addition, the “cells expressing SOX17 and FOXA2 on the patterned area” value with H9 hESCs [3] (day 5 of differentiation) is “almost all of the cells”.

B3: Wnt3a: human recombinant Wnt3a (R&D Systems, 5036-WN-010), morphogen (protein, UniProt P56704 19-352, looked up)
Protein Wnt-3a: SYPIWWSLAVGPQYSSLGSQPILCASIPGLVPKQLRFCRNYVEIMPSVAEGIKIGIQECQHQFRGRRWNCTTVHDSLAIFGPVLDKATRESAFVHAIASAGVAFAVTRSCAEGTAAICGCSSRHQGSPGKGWKWGGCSEDIEFGGMVSREFADARENRPDARSAMNRHNNEAGRQAIASHMHLKCKCHGLSGSCEVKTCWWSQPDFRAIGDFLKDKYDSASEMVVEKHRESRGWVETLRPRYTYFKVPTERDLVYYEASPNFCEPNPETGSFGTRDRTCNVSSHGIDGCDLLCCGRGHNARAERRREKCRCVFHWCCYVSCQECTRVYDVHTCK
Take B3: in experiment [4], the “EpiC differentiation (WT1 expression)” value is on record as “limited if any EpiC differentiation”.
